Laboratory results reported in US20240240160A1, “NOVEL OLIVETOL SYNTHASES FOR C[…]” (priority 2021, published 2024).

Key:
[1] = system: E. coli derivative strain which overexpressed an acyl-CoA synthetase (fadD) gene and expressed an olivetolic acid cyclase (OAC) from Cannabis sativa; assay: OL, OLA and PDAL production in E. coli from plasmid-expressed Type-III PKS genes; format: cell-based; conditions: gene on plasmid
In short: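 E. coli strains expressing codon-optimized Type-III PKS genes (constitutive promoter) plus fadD overexpression and C. sativa OAC, grown at 32° C in P-minimal medium with 2% glucose, spiked with 4 mM hexanoic acid; harvested 3 h or 21 h post-spike. Butyl acetate extracts BSTFA-derivatized, OLA/OL/PDAL quantified by GC-FID.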

[2] = system: E. coli derivative strain which overexpressed an acyl-CoA synthetase (fadD) gene and expressed an olivetolic acid cyclase (OAC) from Cannabis sativa; assay: OL, OLA and PDAL production in E. coli from genome-integrated Type-III PKS genes; format: cell-based
Description: To test olivetolic acid production in E. coli, strains comprising a putative OLS gene and an OAC gene from C. sativa were inoculated in multi-well plates containing LB supplemented with 1% glucose and appropriate concentrations of antibiotics. After 6 hours of cultivation at 32° C., the cells were transferred with a 10% inoculum to a P-limited seed medium (see Table 2) and cultivated for ˜18 hours at 32° ° C. to reach an OD of 2.0-4.0. The cultures were transferred with a 20% inoculum in a P-minimal medium (see Table 3) supplemented with 2% glucose and appropriate concentrations of antibiotics. After 3 hours of cultivation at 32° C., the culture was spiked with 4 mM hexanoic acid (˜OD 1.5-2.0). The resulting cultures were then harvested at either 3 hours or 21 hours post hexanoic acid spike; a final OD was taken. 300 μL of butyl acetate containing 500 mg/L undecanoic acid was added to each multi-well plate. The plates were then vortexed for 30 minutes at 1500 rpm and centrifuged for 10 minutes at 4500 rpm. 50 μL of organic layer was transferred to a 96-well plate and derivatized with 50 μL of N,O-Bis(trimethylsilyl)trifluoroacetamide (BSTFA). The plate was then incubated at room temperature for 2 hours to allow for complete derivatization. The samples were then run on GC-FID for analytical quantification of olivetolic acid (OLA), olivetol (OL), PDAL, and hexanoic acid.
Olivetol, PDAL, OLA, HTAL, CBGA and combinations thereof were analyzed by LCMS or LCMS/MS methods using C18 reversed phase chromatography coupled to either EXACTIVE™ (ThermoFisher) or QTRAP® 4500 (Sciex) mass spectrometers.
For reversed phase LCMS, compounds were identified by their LC retention times and MRM transitions specific to the compounds. LCMS/MS analysis was conducted on a Shimadzu UHPLC system coupled with AB Sciex QTRAP 4500 mass spectrometer. Agilent Eclipse XDB C18 column (4.6×3.0 mm, 1.8 μm) was used with a 1-min gradient elution at 1 mL/min using water containing 0.1% ammonia acetate as mobile phase A and 90% methanol containing 0.1% ammonia acetate as mobile phase B. The LC column temperature was maintained at 45° C. Negative ionization mode was used for all the analytes.
Three of the type-III PKS genes from Example 1 were integrated under control of a constitutive promoter into an E. coli derivative strain which overexpressed an acyl-CoA synthetase (fadD) gene and expressed an olivetolic acid cyclase (OAC) from Cannabis sativa.
The in vivo assay procedure and analytical methods were performed as described above.

[3] = system: hexanoyl-CoA and malonyl-CoA; assay: Specific activity assay of purified type-III polyketide synthases (OLA formation in presence of OAC); format: biochemical; conditions: hexanoyl-CoA and malonyl-CoA in the presence of OAC; FIG. 3
Description: In this Example, the specific activities of three previously uncharacterized type-III polyketide synthases (PKS) to form olivetolic acid from hexanoyl-CoA and malonyl-CoA in the presence of olivetolic acid cyclase (OAC) were determined and compared to the olivetol synthase (OLS) from C. sativa.
Assays were performed in a total volume of 50 μL in 100 mM Tris, pH 7.5 buffer containing 100 μM malonyl-CoA; 100 µM hexanoyl-CoA; a malonyl-CoA regenerating system comprising malonyl-CoA synthetase, excess malonate, and ATP; and excess purified olivetolic acid cyclase (OAC). The major product in this assay was olivetolic acid (OLA), and the triketide pentyl diacetic acid lactone (PDAL) was a side product. N-His-tagged purified enzymes were assayed under these assay conditions at enzyme concentrations and reaction times suitable for initial rate measurements of product formation. Reactions were initiated by addition of the PKS, then incubated for 30 min. Subsequently, 10 μL of reaction solution was removed and quenched into 15 volumes of 75% acetonitrile containing 0.1% formic acid and internal standards, then centrifuged to pellet denatured protein. Supernatants were transferred to fresh plates for LC-MS analysis of OLA, olivetol (OL), and PDAL as described in the Method section above.

[4] = system: hexanoyl-CoA or butyryl-CoA; assay: High-throughput activity assay of OLS_Aro and its variants in cell lysate; format: biochemical; conditions: in the absence of Olivetolic acid Cyclase (OAC)
Description: Single amino acid positions of interest of OLS_Aro were identified based on a 7 Å radial proximity around the active site predicted based on docking results with the tetraketide product into a structural homology model of OLS_Aro. Variants were constructed as a plasmid-based library using specific primers at the positions undergoing mutagenesis, amplifying fragments via Polymerase Chain Reaction (PCR), and circularizing plasmids via Gibson ligation. For site-saturation mutagenesis of selected amino acids sites, a compressed-codon approach was used to eliminate codon redundancy to lower library size. The plasmid-base used was the pZS*vector (Novagen) with expression of the OLS_Aro under control of a pAl promoter and lactose (lac) operator. […]
Single colonies were picked for growth in Luria Bertani (LB) medium in 384-well plates containing with carbenicillin (Carb). […] Cells pellets were stored at −20° C. until ready for assay. […]
Reactions were initiated by addition of cell lysate, then incubated for 20 mins or 1 hr for hexanoyl-CoA and butyryl-CoA, respectively. […] Filtrates analyzed by LC/MS for the quantification of olivetolic acid (OLA), olivetol (OL), and pentyl diacetic acid lactone (PDAL); or divarinic acid (DVA), divarinol (DVL), and propyl diacetic acid lactone (Propyl-DAL). […]
Under the screening conditions described above, products are detected in the low or sub μM range. […]

[5] = constitutive promoter, culture spiked with 4 mM hexanoic acid
[6] = constitutive promoter, 4 mM hexanoic acid

B1: QDX46968.1: Type-III PKS enzyme (OLS) from Anoectochilus roxburghii, designated OLS_Aro (protein, listed as Anoectochilus roxburghii)
chain: MPSLESIRKAPRADGLASILAIGRANPDNFMEQSSFPDFFFRITGSDHLVDLKKKFQRICDRTAIRKRHFVWNEEFIKANPCFSTFMDNSLNVRQEVAIREIPKLGAEAATKAIKEWGQPKSRITHLIFCTTSGMDLPGADYQLTRILGLNPNVERVMLYQQGCFAGGTTLRLAKCLAESRKGARVLVVCAETTTVLFRAPSEEHQEDLVTQALFADGASAVIVGADPDEEAHEKASFVIFSTSQVLLPDSEGAIGGHVSEGGLLATLHRDVPQLVSKNVGKCLEEAFTPLGISDWNSIFWVPHPGGRAILDQIEERVGLKPEKLTTSRHVLAEYGNMSSVCVHFVLDEMRKKSSKEGKATTGEGLEWGVLFGFGPGLTVETVVLRSVPL
modifications: (1)..(390) QDX46968.1
- Total ([1]; OL + OLA + PDAL): 1956 µM
- levels of OLA relative to the E. coli strain with OLS from C. sativa [1]: over two-fold
- OL [1, 5]: 597 µM
- OLA [1, 5]: 823 µM
- PDAL [1, 5]: 536 µM
- products produced by strains with chromosomally expressed enzyme [2]: produced olivetol (OL), olivetolic acid (OLA) and pentyl diacetic acid lactone (PDAL)
- Total ([2]; OL + OLA + PDAL): 276 µM
- OL [2, 6]: 98 µM
- OLA [2, 6]: 136 µM
- PDAL [2, 6]: 42 µM
- specific activity to form olivetolic acid compared with OLS from C. sativa [3]: higher specific activities
- reaction products [4]: the major products are OL and PDAL or DVL and Propyl-DAL
